Data on 7 molecules can be found in patent US20230203146A1 (Boehringer Ingelheim, published 2023).

The term IC50 denotes the concentration that inhibits the measured activity by half. Read a low IC50 as inhibition by little substance. One may read the Kd as a measure of binding affinity in units of concentration. A word on the koff: it is a measure of how fast the partners let go of each other. One may read the kon as the rate constant with which the complex forms.

Substitutions are numbered along the chain they refer to. Names may count otherwise. Where two headings read alike, the source gives them in different places.

Test [1] has as its target T1, recombinant human Ang2-FLD (human, UniProt O15123 275-496, limits assumed).
T1 construct: domain: FLD; not used
T1 sequence (looked up): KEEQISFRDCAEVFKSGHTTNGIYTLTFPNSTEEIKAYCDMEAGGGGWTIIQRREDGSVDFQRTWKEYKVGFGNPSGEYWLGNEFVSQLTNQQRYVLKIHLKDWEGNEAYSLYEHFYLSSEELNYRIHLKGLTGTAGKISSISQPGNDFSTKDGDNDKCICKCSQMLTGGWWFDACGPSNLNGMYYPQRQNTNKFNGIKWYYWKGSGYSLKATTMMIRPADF
The test is described as follows: ProteOn off-rate assay, periplasmic extracts over coated human Ang2-FLD. As to the method:
In a first cycle, amino acid substitutions are introduced randomly in both framework (FW) and complementary determining regions (CDR) using the error-prone PCR method. […] After a polish step, PCR products are inserted via unique restriction sites into a vector designed to facilitate phage display of the VHH library. […] Periplasmic extract of affinity matured clones is diluted 1:10 and injected across the “analyte channels” A1-A6.

The target in test [2] is T2, FLAG-tagged cynomolgus Ang2 (cynomolgus, UniProt O15123 19-496 (human entry), limits assumed).
T2 construct: N-terminally FLAG-tagged, conditioned medium of HEK293T cells; also called cAng2; FLAG-cAng2
T2 chain: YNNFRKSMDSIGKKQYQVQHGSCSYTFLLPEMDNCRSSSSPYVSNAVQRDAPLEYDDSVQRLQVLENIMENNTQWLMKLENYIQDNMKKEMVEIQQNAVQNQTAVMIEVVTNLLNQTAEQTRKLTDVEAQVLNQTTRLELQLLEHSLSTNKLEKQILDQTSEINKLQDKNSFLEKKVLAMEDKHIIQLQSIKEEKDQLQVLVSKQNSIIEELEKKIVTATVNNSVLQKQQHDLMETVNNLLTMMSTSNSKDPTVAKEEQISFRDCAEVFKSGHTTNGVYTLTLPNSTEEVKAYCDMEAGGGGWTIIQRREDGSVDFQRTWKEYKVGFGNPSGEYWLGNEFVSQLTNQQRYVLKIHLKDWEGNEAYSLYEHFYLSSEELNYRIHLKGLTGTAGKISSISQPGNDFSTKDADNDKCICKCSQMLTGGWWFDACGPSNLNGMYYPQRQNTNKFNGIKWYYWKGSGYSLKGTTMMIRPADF
The test is described as follows: competition ELISA: FLAG-cAng2 binding to coated cTie2-Fc. The protocol: (§1) In brief, 2 μg/mL of recombinant mouse Tie2-Fc or cyno Tie2-Fc is coated overnight at 4° C. in a 96-well MaxiSorp plate (Nunc, Wiesbaden, Germany). Coated wells are blocked with a 1% casein solution.

Test [3] has as its target T3, FLAG-tagged mouse Ang2 (mouse, UniProt O35608 19-496).
T3 construct: N-terminally FLAG-tagged, conditioned medium of HEK293T cells; also called mAng2; FLAG-mAng2
T3 sequence: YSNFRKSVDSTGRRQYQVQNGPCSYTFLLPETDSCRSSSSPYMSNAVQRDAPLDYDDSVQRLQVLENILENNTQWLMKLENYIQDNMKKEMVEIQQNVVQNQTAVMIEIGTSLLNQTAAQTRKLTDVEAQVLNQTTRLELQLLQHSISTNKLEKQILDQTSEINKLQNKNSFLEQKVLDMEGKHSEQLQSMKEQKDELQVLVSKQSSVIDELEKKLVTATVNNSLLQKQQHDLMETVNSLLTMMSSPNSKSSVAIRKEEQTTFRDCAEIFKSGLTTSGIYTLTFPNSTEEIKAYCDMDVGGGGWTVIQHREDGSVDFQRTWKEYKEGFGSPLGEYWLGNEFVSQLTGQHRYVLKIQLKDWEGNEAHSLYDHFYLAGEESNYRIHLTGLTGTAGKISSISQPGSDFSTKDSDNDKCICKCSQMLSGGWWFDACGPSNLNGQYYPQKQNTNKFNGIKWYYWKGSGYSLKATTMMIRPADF
The test is described as follows: competition ELISA: FLAG-mAng2 binding to coated mTie2-Fc. The protocol:
as §1

The target of test [4] is T2, FLAG-tagged cynomolgus Ang2. The test is described as follows: competition ELISA: FLAG-cAng2 binding to coated cTie2-Fc. As to the method: as §1
A general note: An ELISA detects its analyte on a solid surface through an enzyme-linked reagent.

The target in test [5] is T3, FLAG-tagged mouse Ang2. The test is described as follows: competition ELISA: FLAG-mAng2 binding to coated mTie2-Fc. As to the method:
as §1
The source holds these as a separate data set.

In test [6] the target is T2, FLAG-tagged cynomolgus Ang2. As to the kind of experiment: competition ELISA: FLAG-cAng2 binding to coated cTie2-Fc.
Another test concerns the target T4, recombinant rat Ang2-FLD (rat, UniProt O35462 275-496, limits assumed).
T4 construct: domain: FLD
T4 sequence (looked up): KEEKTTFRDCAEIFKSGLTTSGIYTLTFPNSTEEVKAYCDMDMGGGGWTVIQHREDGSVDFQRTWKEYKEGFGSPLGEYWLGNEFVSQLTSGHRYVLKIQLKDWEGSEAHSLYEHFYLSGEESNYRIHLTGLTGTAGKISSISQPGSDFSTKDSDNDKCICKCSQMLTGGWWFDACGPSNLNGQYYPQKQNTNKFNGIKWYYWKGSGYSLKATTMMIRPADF
As to the kind of experiment: SPR (Biacore T100), VHH immobilized, Ang2-FLD injected.

Test [7] deals with T5, recombinant human Ang2-FLD (human, UniProt O15123 275-496, limits assumed).
T5 construct: domain: FLD
T5 sequence (looked up): T1 sequence (looked up)
The description is as above.

Test [8] deals with T6, recombinant mouse Ang2-FLD (mouse, UniProt O35608 275-496, limits assumed).
T6 construct: domain: FLD
T6 sequence (looked up): T4 sequence (looked up) with K4Q, V35I, M43V, S91G, G92Q, S107N, E114D, S119A, T168S
The description is as above.

Test [9] deals with T7, recombinant cynomolgus Ang2-FLD (cynomolgus, UniProt A0A2K5VNX6 275-496).
T7 construct: domain: FLD; also called cyno Ang2-FLD
T7 sequence: T1 sequence (looked up) with E2G, I23V, F28L, I35V, G154A, A212G, D221G
Described as above.

The target in test [10] is T2, FLAG-tagged cynomolgus Ang2. As to the kind of experiment: competition ELISA: FLAG-cAng2 binding to coated cTie2-Fc. The protocol:
as §1

Test [11] addresses T3, FLAG-tagged mouse Ang2. The test is described as follows: competition ELISA: FLAG-mAng2 binding to coated mTie2-Fc. The protocol: as §1
This is another data set of the same source.

B1: variant(s) of VHH 00027 carrying A24V (VHH, name in Kabat numbering)
VHH: EVQLVESGGGLVQAGGSLRLSCAVSGFTLDDYAIGWFRQAPGKEREGVSSIRDNDGSTYYADSVKGRFTISSDNDKNTVYLQMNSLKPEDTAVYYCAAVPAGRLRFGEQWYPLYEYDAWGQGTLVTVSS
notes: not shown: C-terminal c-myc tag and His6 tag
B1: the “fold improvement (off-rate against VHH 00027)” value in [1] turned out to be 2 fold.

B2: VHH 28D10 (VHH, not shown: small tags and cut ends)
VHH: B1 VHH with V24A, S50C, N54S, L124Q
notes: Parental llama VHH; also called 028D10
As for B2, the concentration for half-maximal inhibition (IC50) in test [2] was determined as 2.1 nM; with FLAG-tagged mouse Ang2 [3], 5.7 nM; in [4], 2.1 nM; in the test with FLAG-tagged mouse Ang2 [5], 5.7 nM.

B3: variant(s) of VHH 00027 carrying F27L and L100iI (VHH)
VHH: B1 VHH with V24A, F27L, L113I
notes: also called L100il
For the molecule B3, in [1], the “fold improvement (off-rate against VHH 00027)” value turned out to be 9.4 fold.

B4: VHH 00042 (VHH, not shown: small tags and cut ends)
VHH: B1 VHH with A14P, V24A, D75S, K87R
In the case of B4, the IC50 was found to be 0.753 nM in test [6], 0.8 nM in [2], 1.91 nM with FLAG-tagged mouse Ang2 [3] and 1.9 nM in the test with FLAG-tagged mouse Ang2 [5].

B5: VHH 00919 (VHH, not shown: small tags and cut ends)
VHH: B1 VHH with A14P, V24A, S50A, D55G, D75S, K87R
B5: the equilibrium dissociation constant (Kd) worked out at 10 nM with recombinant rat Ang2-FLD, 1.6 nM in test [7], 3 nM in test [8] and 0.54 nM in test [9]. Besides, the koff came out at 0.005 s⁻¹ with recombinant rat Ang2-FLD, 0.0015 s⁻¹ in [7], 0.0039 s⁻¹ in test [8] and 0.0012 s⁻¹ in test [9]. In addition, the kon with recombinant rat Ang2-FLD stood at 500000 M⁻¹ s⁻¹; in test [7] it was 950000 M⁻¹ s⁻¹; in [8], 1.3e+06 M⁻¹ s⁻¹; in test [9] it was 2.3e+06 M⁻¹ s⁻¹. For the same molecule, the figures for the IC50 (with FLAG-tagged mouse Ang2 [3]; in [4]) were 1.8 nM and 0.7 nM, respectively.

B6: VHH 00908 (VHH, not shown: small tags and cut ends)
VHH: B1 VHH with A14P, V24A, F27I, D55G, D75S, K87R, F106Y, L113I
With B6, the concentration for half-maximal inhibition (IC50) in test [6] was 0.079 nM; in test [10] it was 0.079 nM; in the test with FLAG-tagged mouse Ang2 [3], 0.085 nM; with FLAG-tagged mouse Ang2 [11] it was 0.085 nM.

B7: VHH 00027 (VHH, not shown: small tags and cut ends)
VHH: B1 VHH with V24A
notes: Variant of 28D10 carrying C50S/S53N and Q108L
As to B7, the IC50 in test [6] was 0.728 nM; in test [2], 0.7 nM; in test [10], 0.728 nM; with FLAG-tagged mouse Ang2 [3], 1.98 nM; in the test with FLAG-tagged mouse Ang2 [11], 1.98 nM; in the test with FLAG-tagged mouse Ang2 [5], 2 nM.
